Data: paper PMC3657141, “Directed evolution to re-adapt a co-evolved network within an enzyme” (Journal of Biotechnology, 2012)

Substrate: CCC=O
Experiment: purified protein
Assay type: biochemical, Escherichia coli
Conditions: 50 mM LiHPA, 2.4 mM TPP, 9 mM MgCl2, 250 mM NaCl, 50 mM Tris-HCl, pH 7.0, 21 °C

B1: transketolase (TK) (Escherichia coli K-12; D469S) (protein)
chain: MSSRKELANAIRALSMDAVQKAKSGHPGAPMGMADIAEVLWRDFLKHNPQNPSWADRDRFVLSNGHGSMLIYSLLHLTGYDLPMEELKNFRQLHSKTPGHPEVGYTAGVETTTGPLGQGIANAVGMAIAEKTLAAQFNRPGHDIVDHYTYAFMGDGCMMEGISHEVCSLAGTLKLGKLIAFYDDNGISIDGHVEGWFTDDTAMRFEAYGWHVIRDIDGHDAASIKRAVEEARAVTDKPSLLMCKTIIGFGSPNKAGTHDSHGAPLGDAEIALTREQLGWKYAPFEIPSEIYAQWDAKEAGQAKESAWNEKFAAYAKAYPQEAAEFTRRMKGEMPSDFDAKAKEFIAKLQANPAKIASRKASQNAIEAFGPLLPEFLGGSADLAPSNLTLWSGSKAINEDAAGNYIHYGVREFGMTAIANGISLHGGFLPYTSTFLMFVEYARNAVRMAALMKQRQVMVYTHDSIGLGESGPTHQPVEQVASLRVTPNMSTWRPCDQVESAVAWKYGVERQDGPTALILSRQNLAQQERTEEQLANIARGGYVLKDCAGQPELIFIATGSEVELAVAAYEKLTAEGVKARVVSMPSTDAFDKQDAAYRESVLPKAVTARVAVEAGIADYWYKYVGLNGAIVGMTTFGESAPAELLFEEFGFTVDNVVAKAKELL
notes: 680 residues; homodimer
Km: 70.8 mM | kcat: 0.952 ± 0.0567 s⁻¹ | kcat/Km: 13.5 ± 0.333 M⁻¹ s⁻¹
